PMC4973471 (Nature structural & molecular biology, 2016)

Assays:
HSF2 DBD = HSF2 DBD (Homo sapiens, UniProt Q03933 8-115); assay: X-ray crystallography
crystal structure = target: the molecule itself; assay: crystal structure

B1: 2-site HSE (dsDNA)
DNA 1: GGTTCTAGAACC
DNA 2: GGTTCTAGAACC
binding result (HSF2 DBD): binds

B2: human HSF2 DNA-binding domain (amino acids 8–115) (domain or fragment, UniProt Q03933 8-115, looked up)
chain: PAFLSKLWTLVEETHTNEFITWSQNGQSFLVLDEQRFAKEILPKYFKHNNMASFVRQLNMYGFRKVVHIDSGIVKQERDGPVEFQHPYFKQGQDDLLENIKRKVSSSK
binding result (crystal structure): binds
